Patent US20100120700A1, “METHODS AND COMPOSITIONS FOR TREATING CERVICAL CANCER” (priority 2000, published 2010)
“Also recorded” adds a separate entry of the source. Read-outs that look alike come from different tables or passages of the source.

B1: TIP-TIP-IgG fusion protein: two copies of the TIP-1 PDZ domain fused to the hIgG constant region (protein)
chain: QRVEIHKLRQGENLILGFSIGGGIDQDPSQNPFSEDKTDKGIYVTRVSEGGPAEIAGLQIGDKIMQVNGWDMTMVTHDQARKRLTKRSEEVVRLLVTRQSLQKQRVEIHKLRQGENLILGFSIGGGIDQDPSQNPFSEDKTDKGIYVTRVSEGGPAEIAGLQIGDKIMQVNGWDMTMVTHDQARKRLTKRSEEVVRLLVTRQSLQK
modifications: left off: a dimerising Fc or GST
notes: two copies of the TIP-1 PDZ domain fused to the hIgG constant region

Experiments:
[1] = test system: human PDZ domains; test: G assay, E6 PL peptides against PDZ domain panel; settings: value names the PDZ domain(s) that saturated binding with the E6 peptide; signal classes (A450 nm 3-4 or 4)
Description: (1) A PDZ-domain polypeptide is bound to a surface, e.g. a protein binding surface. In a preferred embodiment, a GST/PDZ fusion protein containing one or more PDZ domains is bound to a polystyrene 96-well plate. […] In one embodiment, the GST/PDZ fusion protein is bound via an anti-GST antibody that is coated onto the 96-well plate. Adequate binding to the plate can be achieved when: • a. 100 uL per well of 5 ug/mL goat anti-GST polyclonal antibody (Pierce) in PBS is added to a polystyrene 96-well plate (e.g., Num Polysorb) at 4° C. for 12 hours. • b. The plate is blocked by addition of 200 uL per well of PBS/BSA for 2 hours at 4° C. • c. The plate is washed 3 times with PBS. • d. […]
(3) The binding of the biotinylated peptide to the GST/PDZ fusion protein surface can be detected using a variety of methods and detectors known to one of skill in the art. […] The reaction of the HRP and its substrate is terminated by addition of 100 uL per well of 1M sulfuric acid, and the absorbance of each well of the plate is read at 450 nm.
(4) Specific binding of a PL peptide and a PDZ domain polypeptide is determined by comparing the signal from the well(s) in which the PL peptide and PDZ domain polypeptide are combined, with the background signal(s). […]

[2] = molecular target: GST-HPV18E6 fusion protein (Human papillomavirus type 18, UniProt P06463); settings: plate coated with 5 ug/ml GST-E6, unpurified TIP-TIP-IgG supernatant, FIG. 2
Chain of GST-HPV18E6 fusion protein (P06463 whole entry, the tested form may be a part): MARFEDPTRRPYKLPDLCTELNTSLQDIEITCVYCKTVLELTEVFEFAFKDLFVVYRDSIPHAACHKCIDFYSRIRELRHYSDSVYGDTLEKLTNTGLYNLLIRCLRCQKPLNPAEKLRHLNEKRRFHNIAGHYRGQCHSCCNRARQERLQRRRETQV
Description: (§1) Protocol • 1) Coat plate with 5 ug/ml GST-E6 fusion protein, O/N @4° C. • 2) Dump proteins out and tap dry • 3) Blocking—Add 200 ul per well 2% BSA/PBS, 2 hrs at 4° C. • 4) Prepare PDZ proteins (50:50 mixture of supematant from TIP-TIP-IgG transfection and 2% BSA/PBS) • 5) 3× wash with cold PBS • 6) Add PDZ protein prepared in step 7 or anti-E6 Ab at 1 ug/ml in 2% BSA/PBS (or anti-GST Ab as control). • 7) 3× wash with cold PBS • 8) Add appropriate concentration of enzyme-conjugated detection Ab (anti-hIgG-HRP, anti-goat-HRP, or anti-mouse-HRP) 100 ul per well on ice, 20 minutes at 4° C. • 9) Turn on plate reader and prepare files • 10) 5× wash with Tween wash buffer, avoiding bubbles • 11) Using gloves, add TMB substrate at 100 ul per well • incubate in dark at room temp • check plate periodically (5, 10, & 20 minutes) • take early readings, if necessary, at 650 nm (blue) • at 30 minutes, stop reaction with 100 ul of 1M H2SO4 • take final reading at 450 nm (yellow)

[3] = molecular target: T1, GST-HPV11E6 (Human papillomavirus 11, UniProt P04019); test: Modified ELISA, TIP-TIP-IgG binding to full length E6; set-up: species or system HPV11; settings: plate coated with 5 ug/ml GST-E6; FIG. 2
T1 construct: made in house; host or cells: E. coli
T1 sequence (P04019 whole entry): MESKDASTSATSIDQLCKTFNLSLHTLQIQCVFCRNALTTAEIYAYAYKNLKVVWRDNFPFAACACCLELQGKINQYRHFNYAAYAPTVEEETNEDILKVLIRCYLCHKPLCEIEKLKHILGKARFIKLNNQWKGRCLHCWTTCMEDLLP
Description: as §1

Row | Molecule | PDZ binding partner (signal 4 and 5 of 0-5) [1] | binding to full length oncogenic E6 (HPV18) [2] | binding to full length oncogenic E6 (HPV18) ([2]; listed as TIP-1) | binding to full length non-oncogenic E6 (HPV11) [3]
1 | HPV 18: biotinylated 18-20 aa E6 C-terminal peptide of HPV 18, terminal residues E T Q V; RLQRRRETQV (SEQ ID NO: 14) | TIP1 and Magi 1 (PDZ #2) | – | – | –
2 | B1 | – | able to recognize GST-HPV18E6 fusion protein at levels comparable to an antibody generated against HPV18-E6 | could specifically recognize full length E6 protein from an oncogenic strain (HPV18) | did not show any reactivity; also recorded: without binding to non-oncogenic variants
